The series deals with the molecule itself. In words: atomic force microscopy + co-sedimentation; peptide 10 mg/mL in 10% acetonitrile in water, shaken at 600 rpm at 37 °C for 24 h; fibrils imaged by AFM on mica; fibrils pelleted at 313,000 x g for 30 min, supernatant with unaggregated monomer removed, and the pellet's peptide analysed by LC-MS.

Where no end group is shown, it is not given here.

Regarding YTIAALLSPYS-NH2 [TTR105-115 peptide, unfunctionalised 'wild-type', amide-terminated], the binding result is recorded as “binds”.

(Values after publication PMC6389178, “Nanoscale click-reactive scaffolds from peptide self-assembly” (Journal of Nanobiotechnology, 2017).)
